The target in the experiment is Ec78 PtuA ATPase (E. coli ECONIH5). Description: cryo-EM structure.

Take Ec78 PtuA ATPase (enzyme): the stoichiometry N (as a rule, a count of units in the complex or per binding partner) is 4.

Source of the values: paper PMC12804668.
